Measurements: publication PMC11574021, “CEP192 localises mitotic Aurora-A activity by priming its interaction with TPX2” (The EMBO Journal, 2024)
Numbering of substitutions follows the chain as printed. Names and notes keep the numbering of the source. One block for each molecule: values may come before it. Where no end group is shown, it is not given here. FAM = 5(6)-carboxyfluorescein

What was measured:
[1] = test system: Aurora-A; details: ADP-Glo based assay; ref Park et al. 2023 Figure 3 F-H; cited from earlier work
Description: page 22: have elected to test PLK1 localization. In the absence of a direct test, they could nevertheless refer to the observations of Joukov et al. We find that PLK1 localisation is normal in ∆11 cells and have include d this new data (Fig. EV8) -Figure 5A-B: The scheme could be made clearer. Why is CEP192 depicted in blue and grey in panel A, green and grey in panel B (grey in scheme of excision sites). Why not use color consistently? […] We have ch ...

[2] = target: T1, Aurora-A^CAKD (Aurora-A kinase domain, aa 122–403 C290A, C393A), unphosphorylated (human, UniProt O14965 122-403, C290A | C393A); assay: fluorescence polarisation; competition: 25 μM Aurora-A kinase domain preincubated with 100 nM FAM-TACC3 522-536, CEP192 competitor serially diluted; 25 mM HEPES pH 7.5, 150 mM NaCl, 2 mM DTT, 5 mM MgCl2, 0.01% Tween 20; details: both partners purified
T1 construct: Aurora-A kinase domain, human, residues 122-403, variant lacking surface cysteines; also called Aurora-A 122–403 C290A C393A; unphosphorylated Aurora-A^CAKD; source: E. coli RIL, co-expressed with lambda phosphatase, purified (HisTrap, TEV cleavage, SEC); not shown: His6, N-terminal, cleaved
T1 sequence (looked up): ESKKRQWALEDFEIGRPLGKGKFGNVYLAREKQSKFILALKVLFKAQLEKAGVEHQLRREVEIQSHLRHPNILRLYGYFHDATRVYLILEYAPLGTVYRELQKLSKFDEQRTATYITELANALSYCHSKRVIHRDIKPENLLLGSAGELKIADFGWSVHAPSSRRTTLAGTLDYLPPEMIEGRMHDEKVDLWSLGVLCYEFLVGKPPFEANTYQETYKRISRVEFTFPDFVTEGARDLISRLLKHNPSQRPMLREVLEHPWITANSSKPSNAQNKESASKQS

[3] = target: T2, phosphorylated Aurora-A CAKD (Homo sapiens, UniProt O14965, C290A/C393A); assay: Fluorescence anisotropy competition with FAM-CEP192 501-533, phosphorylated Aurora-A; assay type: binding; details: competition with 100 nM FAM-CEP192 501-533, 10 μM phosphorylated Aurora-A CAKD, n = 3
T2 construct: 10 nM Aurora-A 122–403 C290A C393A phosphorylated protein; His (N, cleaved yes); made in house; host or cells: E. coli B834 (no lambda phosphatase)
T2 sequence (O14965 122-403 C290A/C393A): T1 sequence (looked up)
Procedure: (§1) Assays were performed in 25 mM HEPES pH 7.5, 150 mM NaCl, 2 mM DTT, 5 mM MgCl2, 0.01% Tween 20. For CEP192 and TPX2 competition assays 10 μM Aurora-A kinase domain (phosphorylated or unphosphorylated C290A C393A 122–403) was preincubated on ice with 100 nM FAM-TPX2 7-43 or 100 nM FAM-CEP192 501–533. For TACC3 competition, due to weaker binding, 25 μM Aurora-A kinase domain (phosphorylated or unphosphorylated C290A C393A 122–403) was preincubated with 100 nM FAM-TACC3 522-536. Serial dilutions of competitor (CEP192) were performed in triplicate into a low volume 384-well black plate, before the premixed Aurora-A and tracer were added. A control row included no tracer. Plates were left incubating for 1 h at room temperature before the fluorescence anisotropy was measured using a HIDEX plate reader, with excitation at 485 nm and emission at 535 nm. For direct binding experiments, the assay was performed as above, but the Aurora-A (122–403 C290A C393A or point mutants) was diluted across the plate from high to low concentration, before the addition of 50 nM tracer (FAM-CEP192 501–533) to three replicate rows. Buffer only was added to the control row.
(§2) Fluorescence anisotropy data were processed using Microsoft Excel to calculate intensity and anisotropy using the equation listed in (Yeo et al, [2013]). The IC50 and Kd values were calculated using Origin (OriginLab) where the data fitted to a sigmoid and are summarised in Appendix Table S3.

[4] = target: T2, phosphorylated Aurora-A CAKD; assay: ADP-Glo kinase assay, kemptide substrate; assay type: biochemical
Procedure: Reactions were initiated by the addition of 10 μM ATP and 100 μM kemptide as substrate (Cambridge Bioscience Ltd). The reactions were incubated at room temperature for 60 min before 5 μl was transferred into 5 ul of ADP-Glo Reagent (Promega) in a 384-well low volume low binding plate (Greiner Bio-one). After a further 40 min at room temperature, 10 μl of kinase detection reagent was added to each well, and the reaction was allowed to incubate for an additional 30 min. Luminescence was measured on a HIDEX Sense plate reader (HIDEX) using a 1 s integration time. Control data was subtracted from the luminescence and three repeats were averaged before being fitted to a sigmoidal plot using Origin (OriginLab), where IC50 and EC50 values were calculated.

[5] = target: T3, unphosphorylated Aurora-A CAKD (Homo sapiens, UniProt O14965, C290A/C393A); assay: Fluorescence anisotropy competition with FAM-CEP192 501-533, unphosphorylated Aurora-A; assay type: binding; details: competition with 100 nM FAM-CEP192 501-533, 10 μM unphosphorylated Aurora-A CAKD, n = 3
T3 construct: 10 μM Aurora-A kinase domain (phosphorylated or unphosphorylated C290A C393A 122–403); His (N, cleaved yes); made in house; host or cells: E. coli RIL, co-expressed with lambda phosphatase
T3 sequence (O14965 122-403 C290A/C393A): T1 sequence (looked up)
Procedure: as §1, §2

[6] = target: T1, Aurora-A^CAKD (Aurora-A kinase domain, …); assay: fluorescence polarisation; competition: 10 μM unphosphorylated Aurora-A^CAKD preincubated with 100 nM FAM-TPX2 7-43, CEP192 competitor serially diluted; 25 mM HEPES pH 7.5, 150 mM NaCl, 2 mM DTT, 5 mM MgCl2, 0.01% Tween 20; details: both partners purified

Molecule: CEP192 506-536: short CEP192 fragment used by Park et al 2023 (EDFRSGSEAFDLIAQDEEEFNKEHQFIQEEN; UniProt Q8TEP8 506-536, looked up, fragment)
effect on Aurora-A activity [1]: no effect seen

B3: CEP192 468-533 F508D/I518D/F525D: CEP192 468-533 triple mutant (protein, UniProt Q8TEP8 468-533, looked up, variant F508D I518D F525D)
chain: PQSVVYQNEEGRWVTDLAYYTSFNSKQNLNVSLSDEMNEDDRSGSEAFDLDAQDEEEDNKEHQFIQ
IC50 [3]: > 10 µM
IC50 [5]: > 10 µM

B4: CEP192 468-533 F490D/F508D/I518D: CEP192 468-533 variant replacing hydrophobic residues recognising two regions of N-lobe (protein)
chain: B3 chain with F23D, D58F
modifications: left off: His6, N-terminal, cleaved | SUMO, N-terminal, cleaved
notes: CEP192 468-533 variant replacing hydrophobic residues recognising two regions of N-lobe
IC50 [3]: > 10 µM
IC50 [5]: > 10 µM

B5: FAM-TACC3 522-536 (peptide, UniProt Q9Y6A5 522-536, looked up)
peptide: {FAM}-EESFRDPAEVLGTGA
notes: Made on Rink amide resin and labelled on resin after synthesis, so N-terminal label and C-terminal amide are likely; source: synthetic peptide
binding result [2]: binds

B7: CEP192 1-995: longer CEP192 fragment used by Park et al 2023 (protein, UniProt Q8TEP8 1-995, looked up, fragment)
chain: MEDFRGIAEESFPSFLTNSLFGNSGILENVTLSSNLGLPVAVSTLARDRSSTDNRYPDIQASYLVEGRFSVPSGSSPGSQSDAEPRERLQLSFQDDDSISRKKSYVESQRLSNALSKQSALQMETAGPEEEPAGATESLQGQDLFNRASPLEQAQDSPIDFHLQSWMNNKEPKIVVLDAGKHFEDKTLKSDLSHTSLLENEKLILPTSLEDSSDDDIDDEMFYDDHLEAYFEQLAIPGMIYEDLEGPEPPEKGFKLPTNGLRQANENGSLNCKFQSENNSSLISLDSHSSETTHKESEESQVICLPGTSNSIGTGDSRRYTDGMLPFSSGTWGTEKEIENLKGIVPDLNSECASKDVLVKTLRAIDVKLNSDNFHDANANRGGFDLTDPVKQGAECPHQNKTVLHMDGCLDTETPTVSIQENVDVASLKPISDSGINFTDAIWSPTCERRTCECHESIEKNKDKTDLPQSVVYQNEEGRWVTDLAYYTSFNSKQNLNVSLSDEMNEDFRSGSEAFDLIAQDEEEFNKEHQFIQEENIDAHNTSVALGDTSWGATINYSLLRKSRSTSDLDKDDASYLRLSLGEFFAQRSEALGCLGGGNNVKRPSFGYFIRSPEKREPIALIRKSDVSRGNLEKEMAHLNHDLYSGDLNEQSQAQLSEGSITLQVEAVESTSQVDENDVTLTADKGKTEDTFFMSNKPQRYKDKLPDSGDSMLRISTIASAIAEASVNTDPSQLAAMIKALSNKTRDKTFQEDEKQKDYSHVRHFLPNDLEKSNGSNALDMEKYLKKTEVSRYESALENFSRASMSDTWDLSLPKEQTTQDIHPVDLSATSVSVRAPEENTAAIVYVENGESENQESFRTINSSNSVTNRENNSAVVDVKTCSIDNKLQDVGNDEKATSISTPSDSYSSVRNPRITSLCLLKDCEEIRDNRENQRQNECVSEISNSEKHVTFENHRIVSPKNSDLKNTSPEHGGRGSEDEQESFRPSTSPLSHSS
effect on Aurora-A activity [1]: no effect seen

More lines, main results first:

IC50 [2]: 29 µM
B1: CEP192 501–533 peptide (unlabelled) (peptide, UniProt Q8TEP8 501-533, looked up)
peptide: SDEMNEDFRSGSEAFDLIAQDEEEFNKEHQFIQ
notes: Probably synthesised as the labelled peptides (Rink amide resin); source: peptide

IC50 [3]: 5.39 µM
IC50 ([4]; 10 nM phosphorylated Aurora-A CAKD, 10 μM ATP, 100 μM kemptide, 60 min, n = 3): > 1 µM
IC50 [5]: 6.9 µM
B2: CEP192 468-533 Y487A/F490A: CEP192 468-533 mutant, two F-pocket residues replaced with alanine (protein)
chain: B3 chain with Y20A, F23A, D41F, D51I, D58F
modifications: left off: His6, N-terminal, cleaved | SUMO, N-terminal, cleaved
notes: CEP192 468-533 mutant, two F-pocket residues replaced with alanine
effect on Aurora-A kinase activity ([4]; ADP-Glo, phosphorylated Aurora-A CAKD, kemptide, in words): less potent and less complete

binding result [6]: binds
B6: FAM-TPX2 7-43 (peptide, UniProt Q9ULW0 7-43, looked up)
peptide: {FAM}-SYSYDAPSDFINFSSLDDEGDTQNIDSWFEEKANLEN
notes: TPX2, residues 7-43; Made on Rink amide resin and labelled on resin after synthesis, so N-terminal label and C-terminal amide are likely; source: synthetic peptide
